Source: US20200270352A1 (PIERRE FABRE MEDICAMENT, published 2020)

How the values were obtained:
[1] = target: T1, human IGF-1R, native, on cells (MCF-7, hIGF-1R transfected cells, primary normal human cells) (human, UniProt P08069 31-1367); experiment: cell-based or functional assay
[2] = target: T2, rmIGF-1R protein (murine IGF-1R extracellular domain, R&D Systems cat 6630-GR/Fc) (murine, UniProt Q60751 31-936); experiment: ELISA on coated rmIGF-1R, SNT at 5 µg/ml
T2 construct: extracellular domain; Bought reagent; not shown: Fc part implied by the catalogue number /Fc; not described
T2 sequence (Q60751 31-936): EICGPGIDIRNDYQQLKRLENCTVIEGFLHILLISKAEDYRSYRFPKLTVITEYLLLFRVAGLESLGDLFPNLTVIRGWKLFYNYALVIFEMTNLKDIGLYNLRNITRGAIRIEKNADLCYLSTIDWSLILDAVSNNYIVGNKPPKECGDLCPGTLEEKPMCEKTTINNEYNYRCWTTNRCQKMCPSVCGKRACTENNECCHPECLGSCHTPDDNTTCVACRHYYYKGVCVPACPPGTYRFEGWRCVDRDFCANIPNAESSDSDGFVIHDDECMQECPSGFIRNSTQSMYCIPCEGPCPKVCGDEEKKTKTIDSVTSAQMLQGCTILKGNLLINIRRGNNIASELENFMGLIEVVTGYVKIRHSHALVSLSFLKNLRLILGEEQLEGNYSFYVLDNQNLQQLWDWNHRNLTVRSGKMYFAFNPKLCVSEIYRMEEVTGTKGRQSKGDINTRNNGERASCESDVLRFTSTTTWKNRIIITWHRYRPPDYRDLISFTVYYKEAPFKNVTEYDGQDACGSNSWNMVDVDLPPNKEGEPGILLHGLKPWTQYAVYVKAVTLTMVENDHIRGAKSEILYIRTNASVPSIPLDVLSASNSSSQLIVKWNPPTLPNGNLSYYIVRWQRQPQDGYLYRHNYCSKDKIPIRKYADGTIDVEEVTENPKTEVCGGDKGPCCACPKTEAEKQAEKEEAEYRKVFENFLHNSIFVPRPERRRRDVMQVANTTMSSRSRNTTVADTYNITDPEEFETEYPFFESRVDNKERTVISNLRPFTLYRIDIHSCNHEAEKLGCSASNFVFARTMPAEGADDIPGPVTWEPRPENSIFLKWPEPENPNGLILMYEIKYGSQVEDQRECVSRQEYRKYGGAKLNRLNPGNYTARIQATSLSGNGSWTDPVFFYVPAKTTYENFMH
Method: In addition three ELISAs were performed (either before or after cloning) to study the binding of antibodies on the recombinant human (hIGF-1R) and murine (mIGF-1R) proteins, and on the recombinant human Insulin Receptor (hIR) protein. […] The plates were then blocked with PBS containing 0.5% gelatin (#22151, Serva Electrophoresis GmbH, Heidelberg, Germany) for 2 h at 37° C. Once the saturation buffer discarded by flicking plates, 100 μl of each supernatant dilution were added to each well (either undiluted hybridoma supernatant either supernatant serial dilutions) and incubated for 1 h at 37° C. […] Then, ELISA plates were washed 3-times and the TMB (#UP664782, Uptima, Interchim, France) substrate is added. After a 10 min incubation time at room temperature, the reaction was stopped using 1 M sulfuric acid and the optical density at 450 nm is measured.

[3] = target: T3, monkey IGF-1R on COS-7 cells (African green monkey kidney) (monkey (African green monkey)); experiment: FACS on Cos-7 cells (monkey IGF1R+), SNT at 5 µg/ml
T3 construct: whole, on cells; also called monkey native IGF-1R

[4] = target: T1, human IGF-1R, native, on cells (MCF-7, …); experiment: cell-based or functional assay; remark: listed apart in the source
[5] = target: T1, human IGF-1R, native, on cells (MCF-7, …); experiment: cell-based or functional assay; remark: listed apart in the source
[6] = target: T1, human IGF-1R, native, on cells (MCF-7, …); experiment: cell-based or functional assay; remark: listed apart in the source
[7] = target: T4, human insulin receptor on cells (IM9 cells; hIR+ transfected cell line, NIH 3T3 IR+) (human, UniProt P06213 28-1382); experiment: FACS titration on NIH 3T3 IR+ cells
T4 construct: whole, on cells; also called human IR

Binder | inhibition of hIGF-1R phosphorylation in response to IGF-1 (MCF-7 cells) [1] [%] | D.O 450 nm [2] [OD 450 nm] | % of pIGF-1R compared to IGF-1 (MCF-7 cells, 10 µg/ml Ab) [1] [%] | ΔMFI (MFI 4°C - MFI 37°C, MCF-7) [4] [MFI] | ΔMFI_EC50 (MCF-7) [4] | MCF7 internalisation assay: % remaining rh IGF1R [5] [%] | MCF7 internalisation assay: Δ (MFI 4°C - MFI 37°C) [5] [MFI] | other results
murine antibody 212A11 (hybridoma CNCM I-4773) (antibody, V domains shown, also called m212A11) VH: QVQLQQSGPELVKPGASVKMSCKASGYTFTSYYIHWVKQRPGQGLEWIGWIWPGDGSTKYNEKFKGKTTLTADKSSSTAYMFLSSLTSEDSAVYFCASPMITPNYAMDYWGQGASVTVSS VL: DIQMTQTTSSLSASLGDRVTISCRASQDINKYLNWYQQQPDGTVKLLIYYTSRLHSGVPSRFSGRGSGTDYSLTISNLEQEDIATYFCQQGSTLPYTFGGGTKLEIK | > 80 | 0.102 |  |  |  |  |  | MFI [3]: 126 MFI
chimeric antibody c212A11 (antibody, human IgG1, kappa, V domains shown) VH: QVQLQQSGPELVKPGASVKMSCKASGYTFTSYYIHWVKQRPGQGLEWIGWIWPGDGSTKYNEKFKGKTTLTADKSSSTAYMFLSSLTSEDSAVYFCASPMITPNYAMDYWGQGASVTVSS VL: DIQMTQTTSSLSASLGDRVTISCRASQDINKYLNWYQQQPDGTVKLLIYYTSRLHSGVPSRFSGRGSGTDYSLTISNLEQEDIATYFCQQGSTLPYTFGGGTKLEIKR |  |  | < 10 | 322 | 2.7e-10 |  |  | 
chimeric antibody c214F8 (antibody, human IgG1, kappa) heavy: not shown light: DIQMTQTTSSLSASLGDRVTFSCRASQDISKYLNWYQQQPDGTIKLLIYYTSRLHSGVPSRFSGRGSGTDYSLTITNLEQEDIATYFCQQGSALPYTFGGGTKLEIKRTVAAPSVFIFPPSDEQLKSGTASVVCLLNNFYPREAKVQWKVDNALQSGNSQESVTEQDSKDSTYSLSSTLTLSKADYEKHKVYACEVTHQGLSSPVTKSFNRGEC |  |  | < 10 | 403 | 2.2e-10 |  |  | 
murine antibody 213B10 (hybridoma CNCM I-4774) (antibody, V domains shown, also called m213B10) VH: QVQLQQSGSELVKPGASVKMSCKASGYTFTSYYIHWVKQRPGQGLEWIGWIWPGDGSTKYNERFKGKTTLTADKSSSTAYMFLSSLTSEDSAVYFCASPMITPNYAMDYWGQGASVTVSS VL: DIQMTQTTSSLSASLGDRVTISCRASQDISKYLNWYQQQPDGTIKLLIYYTSRLHSGVPSRFSGRGSGTDYSLTITNLEQEDIATYFCQQGSALPYTFGGGTKLEIK | > 80 | 0.127 |  |  |  | 30 | 271 | 
chimeric antibody c213B10 (antibody, human IgG1, kappa) heavy: not shown light: DIQMTQTTSSLSASLGDRVTISCRASQDISKYLNWYQQQPDGTIKLLIYYTSRLHSGVPSRFSGRGSGTDYSLTITNLEQEDIATYFCQQGSALPYTFGGGTKLEIKRTVAAPSVFIFPPSDEQLKSGTASVVCLLNNFYPREAKVQWKVDNALQSGNSQESVTEQDSKDSTYSLSSTLTLSKADYEKHKVYACEVTHQGLSSPVTKSFNRGEC |  |  | < 10 | 369 | 2.3e-10 |  |  | 
humanized antibody hz208F2 VH3/VL3 (hz208F2 H026/L024) (antibody, human IgG1, kappa, V domains shown, also called H26/L024; first humanized form of 208F2) VH: QVQLVQSGAEVKKPGASVKMSCKASGYTFTSYYIYWVKQAPGQGLEWLGWIWPGDGSTKYNEKFQGRVTLTADKSSNTAYMFLSSLRSEDTAVYFCASPMITPNYAMDYWGQGTLVTVSS VL: DIQMTQSPSSLSASVGDRVTISCRASQDISKYLNWYQQKPGKAPKLLIYYTSRLHSGVPSRFSGRGSGTDYSLTISNLQPEDFATYFCQQGSTLPYTFGGGTKVEIKR |  |  |  |  |  |  |  | % internalization (MCF-7) [6]: 87%; ΔMFI (MFI 4°C - MFI 37°C, MCF-7, 10 µg/ml, 4 h) [6]: 344 MFI; binding result [7]: no binding (tested: log[M] about -7.2 (about 6e-8 M))

Second part, led by results:

inhibition of hIGF-1R phosphorylation in response to IGF-1 (MCF-7 cells) [1] [%] | D.O 450 nm [2] [OD 450 nm] | % of pIGF-1R compared to IGF-1 (MCF-7 cells, 10 µg/ml Ab) [1] [%] | ΔMFI (MFI 4°C - MFI 37°C, MCF-7) [4] [MFI] | ΔMFI_EC50 (MCF-7) [4] | MCF7 internalisation assay: % remaining rh IGF1R [5] [%] | MCF7 internalisation assay: Δ (MFI 4°C - MFI 37°C) [5] [MFI] | Binder | other results
> 80 | 0.099 |  |  |  | 27 | 261 | murine antibody 208F2 (hybridoma CNCM I-4757) (antibody, V domains shown, also called m208F2) VH: QVQLQQSGPELVKPGASVKMSCKASGYTFTSYYIYWVKQRPGQGLEWLGWIWPGDGSTKYNEKFKDKTTLTADKSSNTAYMFLSSLTSEDSAVYFCASPMITPNYAMDYWGQGASVTVSS VL: DIQMTQTTSSLSASLGDRVTISCRASQDISKYLNWYQQQPDGTIKLLIYYTSRLHSGVPSRFSGRGSGTDYSLTISNVEQEDIATYFCQQGSTLPYTFGGGTKLEIK | MCF7 internalisation assay: MFI 37°C [5]: 94 MFI; % internalization (MCF-7) [6]: 88%; ΔMFI (MFI 4°C - MFI 37°C, MCF-7, 10 µg/ml, 4 h) [6]: 294 MFI
 |  | < 10 | 288 | 1.8e-10 |  |  | chimeric antibody c208F2 (antibody, human IgG1, kappa, V domains shown) VH: QVQLQQSGPELVKPGASVKMSCKASGYTFTSYYIYWVKQRPGQGLEWLGWIWPGDGSTKYNEKFKDKTTLTADKSSNTAYMFLSSLTSEDSAVYFCASPMITPNYAMDYWGQGASVTVSS VL: DIQMTQTTSSLSASLGDRVTISCRASQDISKYLNWYQQQPDGTIKLLIYYTSRLHSGVPSRFSGRGSGTDYSLTISNVEQEDIATYFCQQGSTLPYTFGGGTKLEIKR | % internalization (MCF-7) [6]: 82%; ΔMFI (MFI 4°C - MFI 37°C, MCF-7, 10 µg/ml, 4 h) [6]: 278 MFI
> 80 | 0.112 |  |  |  | 30 | 243 | murine antibody 219D6 (hybridoma CNCM I-4736) (antibody, V domains shown, also called m219D6) VH: QVQLQQSGPELVKPGDSVKMSCKASGYSFTSYFIHWVKQRPGQGLEWIGWIWPGDGSTKYNEKFKGKTTLTTDKSSSTAYMFLNSLTSEDSAVYFCASPMITPNYAMDYWGQGASVTVSS VL: DIQMTQTTSSLSASLGDRVTISCRASQDISKYLNWYQQQPDGTVKLLIYYTSRLHSGVPSRFSGRGSGTDYSLTISNLEQEDIATYFCQQGSTLPYTFGGGTKLEIK | 
 |  | < 10 | 353 | 4.4e-10 |  |  | chimeric antibody c219D6 (antibody, human IgG1, kappa, V domains shown) VH: QVQLQQSGPELVKPGDSVKMSCKASGYSFTSYFIHWVKQRPGQGLEWIGWIWPGDGSTKYNEKFKGKTTLTTDKSSSTAYMFLNSLTSEDSAVYFCASPMITPNYAMDYWGQGASVTVSS VL: DIQMTQTTSSLSASLGDRVTISCRASQDISKYLNWYQQQPDGTVKLLIYYTSRLHSGVPSRFSGRGSGTDYSLTISNLEQEDIATYFCQQGSTLPYTFGGGTKLEIKR | 
> 80 | 0.102 |  |  |  | 29 | 275 | murine antibody 214F8 (hybridoma CNCM I-4775) (antibody, V domains shown, also called m214F8) VH: QVQLQQSGSELVKPGASVKLSCKASGYTFTSYYIHWVKQRPGQGLEWIGWIWPGDGSTKYNERFKGKTTLTADKSSSTAYMFLSSLTSEDSAVYFCASPMITPNYAMDYWGQGASVTVSS VL: DIQMTQTTSSLSASLGDRVTFSCRASQDISKYLNWYQQQPDGTIKLLIYYTSRLHSGVPSRFSGRGSGTDYSLTITNLEQEDIATYFCQQGSALPYTFGGGTKLEIK | MCF7 internalisation assay: MFI 37°C [5]: 111 MFI
